Measurements as given in patent US11988675B2, “Methods for quantifying frataxin activity” (Larimar Therapeutics, Inc., priority 2019, dated 2024).
Like-named read-outs stand apart in the source and are kept apart here.

Legend:
FXN fusion protein = target: T1, FXN fusion protein (Homo sapiens, UniProt Q16595); assay: HQ assay in the presence of NADH or NADPH (FIG. 3, Panel B); assay type: biochemical; settings: added to the assay with Fe^3+
T1 sequence (Q16595 with tags, fused parts or gaps): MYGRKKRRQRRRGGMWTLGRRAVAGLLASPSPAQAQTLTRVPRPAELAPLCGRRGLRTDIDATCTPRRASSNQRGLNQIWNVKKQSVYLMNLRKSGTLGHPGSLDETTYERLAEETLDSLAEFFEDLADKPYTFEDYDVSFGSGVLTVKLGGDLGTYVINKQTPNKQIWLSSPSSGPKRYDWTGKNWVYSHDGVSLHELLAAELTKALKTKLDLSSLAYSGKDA
Description: Redox activity of the FXN fusion protein was also measured in the presence of NADPH and NADH.

FXN-deficient cell lines = assay: Genomic footprint of FXN-deficient cell lines before and after FXN fusion protein treatment; assay type: cell-based; settings: data not shown
From the text: (§1) FXN fusion protein having the amino acid sequence of SEQ ID NO: 12 comprises a cell penetrating peptide, HIV-TAT (SEQ ID NO: 4), and a full length hFXN (SEQ ID NO: 1), linked through a linker at the N-terminus of the hFXN.

[1] = 10 μM FXN fusion protein, 5 μM HQ, 5 μM Fe(III) sulfate
Description: The goal of this experiment was to evaluate pH dependence of HQ-dependent superoxide generating activity of an exemplary FXN fusion protein. FXN fusion protein of SEQ ID NO: 12 was used in this experiment. Specifically, kinetics of superoxide generation by an exemplary FXN fusion protein was evaluated at pHs ranging from 7.0 to 9.0. Each reaction mixture contained 5 μM HQ, 5 μM Fe(III) sulfate, 0.05 μM H2DCF and 10 μM exemplary FXN fusion protein in 50 mM Tris-HCL at pH of 7.0, 7.4, 7.8, 8.0, 8.2, 8.5 and 9.0.
The assay plate was placed in the plate reader and the kinetic read began immediately after all assay ingredients were mixed together. The plate reader settings were as follows: 2-hour kinetic scan with a Fluorescent read (excitation 485/20, emission 528/25, and a gain of 50) every 5-minutes with a 10 second shake between reads. Maximum initial velocity (Vi) was determined for each well by measuring fastest change in arbitrary fluorescence unit (AFU) over 5 data points.

[2] = Chemical stability study: HQ assay after chemical stress; assay type: biochemical
Description: The goal of this experiment was to evaluate stability to chemical stress of an exemplary FXN fusion protein by evaluating the activity of the exemplary FXN fusion protein after its exposure to chemical stressors that may trigger protein denaturation and/or degradation of the FXN fusion protein.
Briefly, study control was stored at 2-8° C. over the course of the study. Each treatment was conducted as follows:
i. Acid treatment: 1N HCl was added to the solution containing FXN fusion protein until a pH≤4 was reached. The sample was kept at 37° C. for 2 days, and then the buffer exchanged for the buffer of the DS formulation. The sample was stored at 2-8° for the remainder of the study.
ii. Alkaline treatment: 1M Tris base was added to the solution containing FXN fusion protein until a pH≥10 was reached. The sample was kept at 37° C. for 2 days, and then the buffer was exchanged for the buffer of the DS formulation. The sample was stored at 2-8° C.
iii. Acid and Base control: solution containing FXN fusion protein was stored at 37° C. for 2 days, and then stored at 2-8° C.
iv. Oxidation stress treatment: exemplary FXN fusion protein was incubated in the presence of 0.05% hydrogen peroxide at 37° C. for 2 hours and then stored at 2-8° C.
v. Oxidation control: exemplary FXN fusion protein was incubated at 37° C. for 2 hours and then stored at 2-8° C.
vi. Heat stress treatment: exemplary FXN fusion protein was incubated at 50° for 2 hours then stored at 2-8° C.
All samples were analyzed for appearance, pH, protein quantification (by A280), size-exclusion ultra-performance liquid chromatography (SE-UPLC), reversed-phase high-performance liquid chromatography (RP-HPLC), ion-exchange high-performance liquid chromatography (IE-HPLC), reduced capillary electrophoresis sodium dodecyl sulfate (rCE-SDS), non-reduced capillary electrophoresis sodium dodecyl sulfate (nrCE-SDS), and free thiol (data not shown). The concentration of FXN fusion protein was determined by Western blot, and redox activity was determined using the HQ assay as described above.

FDRA mouse model = assay: Treatment of an FDRA mouse model; assay type: in vivo; settings: data not shown
From the text: as §1

[3] = in the presence and absence of metal ions; FIG. 1
Description: Protocol for Hydroquinone (HQ) Reduction Assay
a. 1 ml of 1 mM H2DCFDA (in DMSO) is added to 20 mL of 0.01 M NaOH working solution to generate the activating solution. The solution is stirred for 30 minutes at room temperature in the dark.
b. 79 mL of 33 mM NaH2PO4 solution is added to the activating solution to yield a final concentration of 10 μM H2DCF.
b. Excitation and emission reading of the plate is performed every minute, or as required, with a spectrometer set for the following parameters: excitation at 485/20, emission at 528/20, optics from the top, a read height of 1 mm, and a gain of 50.
To each well add: • i. 10 μL of 20× Hydroquinone (to 20 μM final concentration) • ii. 10 μL of 20×Mn^2 (5 μM final concentration)
b. Tris Buffer Addition • i. FXN protein sample well: 168 μL • ii.
b. 10 μL of H2DCF (10 μM working solution) is added to every well (except the DCF standard curve) to arrive at a final concentration of 0.5 μM H2DCF.
b. […] Velocity calculated on 5 points; • 3. Relative fluorescence units (RFU) per minute. • ii. Vi generated from the fluorescence scanner is plotted on a scatter plot • 1. […]
c. […] The line should go through 0,0, and the slope recorded. […]
Generation of ROS, i.e., superoxide, was detected using an ROS detector compound, such as for example, 2′,7′-dichlorodihydrofluorescein (H2DCF), and was followed kinetically, as shown in Panel A of FIG. 1. […]

[4] = Temperature stability study: HQ assay after one month storage; assay type: biochemical
Description: The goal of this experiment was to evaluate thermal stability of an exemplary FXN fusion protein by evaluating the activity of the FXN fusion protein after short-term storage (one month) at different temperatures.
(SPL1), 2-4° C. (SPL2) and 25° C. (SPL3), as compared to the DS control. […] (SPL1), 2-4° C. (SPL2) and 25° C. (SPL3), as compared to the DS control.

[5] = in the absence of Fe^3+; 10 μM FXN fusion protein, 10 μM HQ, 5 μM H2DCF
Description: In another experiment, the effect of the presence of Fe^3+ ions on the activity of an exemplary FXN fusion protein was studied. In this experiment, the kinetics of ROS generated over time was measured in assay mixtures containing 10 μM exemplary FXN fusion protein, 10 μM HQ, and 5 μM H2DCF. One assay mixture also contained 1 mM deferoxamine, an iron chelator.

[6] = From the text: The goal of the first part of the experiment was to validate performance of the HQ assay at the conditions used for the HTS. To this end, the HQ assay was characterized by measuring statistical parameters, such as signal-to-background (S/B) ratio, Z′ factor (which is a measure of the statistical robustness of the assay readout), and intra- and inter-plate variability. To this end, two 96-well plates were each split into 9 sections: 4 sections in each plate contained an exemplary FXN fusion protein at the concentration of 10 μM (high control); 4 sections contained the exemplary FXN fusion protein at the concentration of 0.5 μM (low control); and 1 section contained only the assay mix without the FXN fusion protein (blank control).
H2DCF was activated by incubating in the dark 1 mL of 1 mM H2DCF-DA in 20 mL of 0.01 M NaOH for 30 minutes while stirring. Subsequently, 75 mL of 33 mM NaH2PO4 was added to the activation mixture to yield a final H2DCF concentration of 10 μM. This solution was stored at 4° C. and protected from light until use. The assay mix in each well contained 50 mM Tris-HCL (pH 8.0), 50 μM HQ, 1 μM MnCl2, 0.5 μM activated H2DCF and the exemplary FXN fusion protein at the concentration of 10 μM (high control), 0.5 μM (low control) and 0 μM (blank control). After the assay mix was added to the plate, the plate was immediately placed in the plate reader, and the kinetic read was initiated. The plate reader settings were as follows: 45-minute kinetic scan with a Fluorescent read (excitation 482/20, emission 530/25, and a gain of 50) every minute with a 3 second shake in between reads. Maximum initial velocity (Vi) was determined for each well by measuring the fastest change in arbitrary fluorescence unit (AFU) over 5 data points. The statistical parameters, such as signal-to-background (S/B) ratio, Z′ factor, and intra- and inter-plate variability were calculated to characterize the assay performance.

[7] = Acid and alkaline control: 37° C. for 2 days
[8] = Acid stress: pH ≤4, at 37° C. for 2 days
[9] = Alkaline stress: pH ≥10, at 37° C. for 2 days
[10] = Heat stress: 50° C. for 2 hours
[11] = Oxidation control: 37° C. for 2 hours
[12] = Oxidation: 0.05% peroxide at 37° C. for 2 hours
[13] = Study control: 2-8° C. for 2 hours
[14] = Drug substance (DS) control (stored at −80° C.)

## NC(=O)C1=CN([C@@H]2O[C@H](COP(=O)(O)OP(=O)(O)OC[C@H]3O[C@@H](n4cnc5c(N)ncnc54)[C@H](O)[C@@H]3O)[C@@H](O)[C@H]2O)C=CC1 [NADH]
FXN fusion protein
  effect on ROS production / redox activity of the FXN fusion protein: did not affect the redox activity

## NC(=O)C1=CN([C@@H]2O[C@H](COP(=O)(O)OP(=O)(O)OC[C@H]3O[C@@H](n4cnc5c(N)ncnc54)[C@H](OP(=O)(O)O)[C@@H]3O)[C@@H](O)[C@H]2O)C=CC1 [NADPH]
FXN fusion protein
  effect on ROS production / redox activity of the FXN fusion protein: significantly diminished ROS production

B1: FXN fusion protein: cell penetrating peptide HIV-TAT linked through a linker to the N-terminus of full length hFXN; amino acid sequence of SEQ ID NO: 12 (protein)
chain: MYGRKKRRQRRRGGMWTLGRRAVAGLLASPSPAQAQTLTRVPRPAELAPLCGRRGLRTDIDATCTPRRASSNQRGLNQIWNVKKQSVYLMNLRKSGTLGHPGSLDETTYERLAEETLDSLAEFFEDLADKPYTFEDYDVSFGSGVLTVKLGGDLGTYVINKQTPNKQIWLSSPSSGPKRYDWTGKNWVYSHDGVSLHELLAAELTKALKTKLDLSSLAYSGKDA
FXN-deficient cell lines
  expression of a set of genes before and after treatment: significant difference in the expression of a set of genes
[1]; pH 7.0 to 9.0
  pH at which activity peaks: about 8.5
[1]; pH of 7.4 or lower
  superoxide-generating activity (Vi): almost no activity
[2]; [7]
  Result (% activity): 79.7%
  Vi: (1,730 Vi units)
[2]; [8]
  Result (% activity): 23.7%
  Vi: (689 Vi units)
[2]; [9]
  Result (% activity): 0.02%
  Vi: (0.7 Vi units)
[2]; [10]
  Result (% activity): 96.9%
  Vi: (2,820 Vi units)
[2]; [11]
  Result (% activity): 59.5%
  Vi: (1,730 Vi units)
[2]; [12]
  Result (% activity): 2.2%
  Vi: (63 Vi units)
[2]; [13]
  Result (% activity): 100%
  Vi: (2,908 Vi units)
[2]; acid stress
  stability of HQ activity to acid stress: partly susceptible
[2]; alkaline stress
  stability of HQ activity to alkaline stress: susceptible
[2]; heat stress applied for 2 hours
  stability of HQ activity to heat stress: to a large extent, was resistant to heat stress
[2]; oxidation stress
  stability of HQ activity to oxidation stress: susceptible
FDRA mouse model
  cardiomyopathic phenotype, for example cardiac contractility: measurable improvement in the cardiomyopathic phenotype
[3]
  enzymatic activity, as measured by ROS generation over time: possesses enzymatic activity
[4]; [14]
  Result (% activity): 100.2%
  Vi: (1126 Vi units)
[4]; SPL1: −60° C. for 1 month
  Result (% activity): 100%
  Vi: (1123 Vi units)
[4]; SPL2: 2-4° C. for 1 month
  Result (% activity): 66.4%
  Vi: (746 Vi units)
[4]; SPL3: 25° C. for 1 month
  Result (% activity): 23.4%
  Vi: (263 Vi units)
[4]; storage in conditions other than −60° C. for one month
  activity in the HQ Assay after storage: decreased activity
[5]
  lag time to ROS generation: approximately 2 hours
[6]; Plate 1, High control (10 µM FXN fusion protein)
  Mean Vi: 5390.0
[6]; Plate 1, Low control (0.5 μM FXN fusion protein)
  Mean Vi: 471.0
[6]; Plate 2, High control (10 μM FXN fusion protein)
  Mean Vi: 4995.1
[6]; Plate 2, Low control (0.5 μM FXN fusion protein)
  Mean Vi: 635.5
[6]; Plates 1 and 2 combined, High control (10 μM FXN fusion protein)
  Mean Vi: 5192.5
[6]; Plates 1 and 2 combined, Low control (0.5 μM FXN fusion protein)
  Mean Vi: 553.2
